Measurements: patent US11666658B2, “Rifamycin analogs and antibody-drug conjugates thereof” (Regeneron Pharmaceuticals, Inc., priority 2018, dated 2023)
Residue numbers refer to the chain shown, from its start. Names may count otherwise.

B1: H2aM21229N: one of "Twelve anti-MSR1 antibodies"; "an 'H2aM' antibody has a mouse IgG2a Fc" (antibody, V domains shown)
VH: EVQLVESGGGLVKPGGSLRLSCAASGFTFSRYSMNWVRQAPGKGLEWVSSISSSSSYIYYGDTVKGRFTISRDNAKKSLYLQMNSLRAEDTAVYYCVRDRGQLVLYFDYWGQGTLVTVSS
VL: DIQMTQSPASLSTSIRDRVTITCRASLSISSFLNWFQQRPGKAPKLLIYVASNLQSGVPSRFSDSGSGTDFTLTISSLQPEDFATYYCQQNYSTPPITFGQGTRLEIK
B2: H1H27739P-N297Q: anti-MSR1 antibody; "antibodies H1H27739P-N297Q and H1H27734P-N297Q showed no inhibition of DiI-AcLDL uptake" (antibody, V domains shown)
VH: EVQLVESGGGLVQPGGSLRLSCTASGFTFSSYAMSWVRQAPGKGLEWVSAISGTGSSTYFTDSVKGRFAISRDNSKNTLYLQMNSLRAEDTAVYYCAKDGEWLSTVTLFDYWGQGTLVTVSS
VL: EIVMTQSPATLSVSPGERATLSCRASQSVSSNLAWYQQKPGQAPRLLIYGASTRATGIPARFSGSGSGTDFTLTISSLQSEDFALYYCQQYFIWPPHPTFGPGTKVDIKR
B3: H1H27734P-N297Q: one of "Twelve anti-MSR1 antibodies" that "bound to parental HEK293 cells"; human IgG1 Fc with N297Q mutation (antibody, V domains shown)
VH: EVQLVESRGGLVQPGGSLRLSCAASGFTFSSYAMSWVRQAPGKGLEWVSAISGSGGSTFYADSVKGRFTISRDNSKNTVYLQMNSLRAEDTAVYYCAKALVLRFLEWLGDYWGQGTLVTVSS
VL: DIQMTQSPSTLSASVGDRVTITCRASQSISSWLAWFQQKPGKAPKLLIYKASSLESGVPSRFSGSGSGTEFTLTISSLQPDDFATYYCQQYKSYWTFGQGTKVEIKR
B4: H1H21227N-N297D: "The 21227N antibody was also produced as a third version with a N297D mutation" (antibody, V domains shown)
VH: QVQLVQSGAEVKKPGASVKVSCKVSGYTLTELSIHWVRQVPGKGLEWMGGFDPEEGETIFAQEFRDRVTLTEDTSPDTAYMELSSLKSEDAAVYYCTTPRYCNNGICYDYWGQGTLVTVSS
VL: DIQMTQSPSSLSASVGDRVTITCRASQSISNYLNWYQQKPGKAPKLLIYTASSLQSGVPSRFSGSGSGTDFTLTISSLQTEDFATYYCQQSYSNFPITFGQGTRLEIKR
B5: H1H21231N-N297Q: modified version of "21231N (H1H21231N-N297Q) anti-MSR1 antibodies" with "a N297Q single point mutation" (antibody, V domains shown)
VH: EVQLVESGGGLVQPGGSLRLSCAASGFTFSDHYMDWVRQAPGKGLEWVGRTRNKANSHTTEYTASVTGRFTISRDDSRNSLYLQMNSLKTEDTAVYYCVRAGIIGTLFDYWGQGTLVTVSS
VL: B4 VL with S7F, N31S, Y32F, Y36F, L46F, T50A, T80P, N94S, F95P
B6: H1H21231N: "Three anti-MSR1 antibodies ... (21227N, 21231N, 21234N) were produced with the original human Fcγ portion" (antibody, V domains shown)
VH: B5 VH
VL: B4 VL with S7F, N31S, Y32F, Y36F, L46F, T50A, T80P, N94S, F95P

What follows are molecules tested against T1, MSR1-mediated DiI-AcLDL uptake in HEK293.Myc.hMSR1 cells (Homo sapiens, UniProt P21757) (assay: Ligand uptake assay, DiI-AcLDL). Conditions: not given.
T1 construct: expressed in transfected cells; host or cells: HEK293 (lentiviral transduction, hygromycin selection)
T1 sequence (P21757 1-451): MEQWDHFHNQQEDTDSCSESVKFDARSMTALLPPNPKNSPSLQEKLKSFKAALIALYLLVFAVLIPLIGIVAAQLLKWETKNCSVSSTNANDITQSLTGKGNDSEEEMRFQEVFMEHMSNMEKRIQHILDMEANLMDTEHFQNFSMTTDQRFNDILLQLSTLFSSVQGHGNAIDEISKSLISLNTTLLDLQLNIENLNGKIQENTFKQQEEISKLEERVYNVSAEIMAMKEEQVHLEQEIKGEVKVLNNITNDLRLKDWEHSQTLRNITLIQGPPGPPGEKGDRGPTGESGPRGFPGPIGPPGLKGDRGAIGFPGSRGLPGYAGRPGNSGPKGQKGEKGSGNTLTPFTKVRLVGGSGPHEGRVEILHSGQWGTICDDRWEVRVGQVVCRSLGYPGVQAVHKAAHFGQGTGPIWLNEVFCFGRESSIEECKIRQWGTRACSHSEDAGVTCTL
Assay type: cell-based
Procedure: The resulting cell line, referred to here as “HEK293.Myc.hMSR1”, was selected and maintained in DMEM containing 10% FBS, NEAA, penicillin/streptomycin, L-glutamine, and 100 μg/mL hygromycin.
After 30 minutes, either oxidized or acetylated low-density lipoprotein (LDL) labeled with 1,1′ dioctadecyl-3,3,3′,3′-tetramethylindocarbocyanine perchlorate (referred to as “DiI-OxLDL” or “DiI-AcLDL,” respectively) was added to the cells at a constant concentration of 10 μg/mL. […] Results were analyzed using nonlinear regression (4-parameter logistics) with the Prism 7 program to obtain EC50 and IC50 values. The percentage of inhibition was calculated with the Relative Fluorescent Unit (RFU) values by using the following equation: […]
In the equation, “RFUBaseline” is the fluorescence value from the cells treated with 10 μg/mL ligand without antibodies, “RFUInhibition” is the minimum fluorescence value with for a particular antibody with 10 μg/mL ligand, and “RFUBackground” is the fluorescence value from cells without any ligand or antibodies.

Molecule	inhibition of DiI-AcLDL uptake (in words)
B1	no inhibition of DiI-AcLDL uptake
B2	no inhibition of DiI-AcLDL uptake
B3	no inhibition of DiI-AcLDL uptake

Same assay, conditions: 10 μg/mL DiI-AcLDL

Molecule	IC50, Dil-Acetylated LDL
B1	no inhibition
B2	no inhibition
B3	no inhibition

Same assay, conditions: maximum inhibition of uptake, 10 μg/mL DiI-AcLDL

Molecule	% Inhibition, Dil-Acetylated LDL
B1	no inhibition
B2	no inhibition
B3	no inhibition

Each molecule was assayed against T2, Ac-LDL binding to His9-hMSR1 (Homo sapiens, UniProt P21757) (assay: Competition sandwich ELISA, Ac-LDL). Conditions: anti-MSR1 antibody 100 nM, 50 pM Ac-LDL.
T2 construct: human MSR1 extracellular domain expressed with a N-terminal nonahistidine tag; purchased R&D Systems 2708-MS
T2 sequence (P21757 77-451 limits assumed): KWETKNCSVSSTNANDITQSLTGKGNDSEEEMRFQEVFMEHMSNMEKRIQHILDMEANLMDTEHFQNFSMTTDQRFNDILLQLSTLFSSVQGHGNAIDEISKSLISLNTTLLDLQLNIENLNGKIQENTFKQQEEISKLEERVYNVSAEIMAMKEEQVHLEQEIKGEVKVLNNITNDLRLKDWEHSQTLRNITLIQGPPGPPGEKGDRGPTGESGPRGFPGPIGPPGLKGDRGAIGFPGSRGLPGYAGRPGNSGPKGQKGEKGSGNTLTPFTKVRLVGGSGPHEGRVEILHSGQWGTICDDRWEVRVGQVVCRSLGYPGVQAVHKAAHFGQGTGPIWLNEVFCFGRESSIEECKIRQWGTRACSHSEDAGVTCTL
Procedure: (§1) The ability of anti-MSR1 antibodies disclosed herein to block the binding of various ligands to human MSR1 was measured using three competition sandwich ELISA assays. The ligands used in the assays were: (1) acetylated LDL (Ac-LDL), (2) oxidized LDL (Ox-LDL), and (3) advanced glycation end-products of bovine serum albumin (AGE-BSA).
(§2) Anti-MSR1 antibodies or isotype control antibodies were serially diluted as appropriate for each tested ligand and added in duplicate for each serial dilution set to microtiter plates coated with His9-hMSR1. Buffer alone was also added to wells on each coat. […] This assay was conducted in four different assay runs.
(§3) Data analysis was performed using a sigmoidal dose-response model within Prism™ software (GraphPad). Percent blockade at maximum concentration of the antibody tested in each assay was calculated as an indicator of the ability of the antibodies to block the binding of Ac-LDL, Ox-LDL or biot-AGE-BSA to His9-hMSR1 on the plate relative to the baseline of the assay. In the calculation, binding signal of the same concentrations of Ac-LDL, Ox-LDL, or biot-AGE-BSA used for the assays in the absence of antibody was referenced as 100% binding or 0% blocking, while the baseline of the assay, defined as binding signal of the sample of buffer without MSR1 ligands or antibody, was referenced as 0% binding or 100% blocking. The maximum percent blockade at the highest concentration of antibody tested in each assay are reported for all antibodies.

Molecule	% Blocking of Ac-LDL binding to His9-hMSR1 [%]
B4	101
B5	−60
B6	−62

Each molecule was assayed against T3, Ox-LDL binding to His9-hMSR1 (Homo sapiens, UniProt P21757) (assay: Competition sandwich ELISA, Ox-LDL). Conditions: anti-MSR1 antibody 500 nM, Ox-LDL 10 nM.
T3 construct: human MSR1 extracellular domain expressed with a N-terminal nonahistidine tag; purchased R&D Systems 2708-MS
T3 sequence (P21757 77-451 limits assumed): T2 sequence (P21757 77-451 limits assumed)
Procedure: as §1, §2, §3

Molecule	% Blocking of Ox-LDL binding to His9-hMSR1 [%]
B4	99
B5	26
B6	22

These molecules were tested against T4, biot-AGE-BSA binding to His9-hMSR1 (Homo sapiens, UniProt P21757) (assay: Competition sandwich ELISA, biot-AGE-BSA). Conditions: anti-MSR1 antibody 300 nM, 400 pM biot-AGE-BSA.
T4 construct: human MSR1 extracellular domain expressed with a N-terminal nonahistidine tag; purchased R&D Systems 2708-MS
T4 sequence (P21757 77-451 limits assumed): T2 sequence (P21757 77-451 limits assumed)
Procedure: as §1
For the assay, recombinant monomeric human MSR1 protein comprised of a portion of the human MSR1 extracellular domain expressed with a N-terminal 9-Histidine tag (SEQ ID NO: 688) (His9-hMSR1; R&D Systems, Cat #2708-MS) was coated at a concentration of […] in PBS on a 96-well microtiter plate overnight at 4° C. for use in competition ELISA assays with Ac-LDL, Ox-LDL, or biotinylated-AGE-BSA (“biot-AGE-BSA”). […] Anti-MSR1 antibodies or isotype control antibodies were serially diluted as appropriate for each tested ligand and added in duplicate for each serial dilution set to microtiter plates coated with His9-hMSR1. Buffer alone was also added to wells on each coat. After 1 hour incubation at room temperature, without wash, a final constant concentration of 50 pM Ac-LDL (Life Technologies/ThermoFisher Scientific, Cat #L-35354), 5 nM or 10 nM Ox-LDL (Alfa Aesar, Cat #J65591), or 400 pM biot-AGE-BSA (R&D Systems, Cat #BT4127) were added to plates with His9-hMSR1, and the plates were incubated for an additional 1 hour at room temperature. (Concentrations of Ac-LDL, Ox-LDL and biot-AGE-BSA for antibody inhibition assays were selected from the approximate midway point within the linear portion of individual binding curves of Ac-LDL, Ox-LDL or biot-AGE-BSA to plate-coated His9-hMSR1.) Wells were washed, and plate-bound Ac-LDL or Ox-LDL were detected with anti-LDL rabbit antibody (Alfa Aesar, Cat #J64398) in combination with anti-rabbit IgG (H+L) specific donkey polyclonal antibodies conjugated with horseradish peroxidase (HRP) (JacksonImmunoResearch, Cat #711-035-152) and biot-AGE-BSA was detected with a streptavidin-HRP (ThermoFisher Scientific, Cat #N200). Plates were developed using TMB substrate solution (BD Biosciences, Cat #51-2606KC & Cat #51-2607KC) according to manufacturer's recommendation and absorbance at 450 nm was measured on a Victor™ Multilabel Plate Reader (PerkinElmer™). This assay was conducted in four different assay runs.
as §3, with “antibodies. Negative percent blockade numbers reflected higher MSR1 ligands binding to plate coated His9-hMSR1 in the presence of antibodies.” for “antibodies.”

Molecule	% Blocking of biot-AGE-BSA binding to His9-hMSR1 [%]
B4	97
B5	−50
B6	−44
